Substitutions are numbered along the chain they refer to.

The IC50 is the concentration needed to halve the response being measured. A word on the Kd: it is the equilibrium constant for the complex coming apart. Higher therefore signals weaker binding. What is called koff is the first-order rate constant of dissociation. By kon is commonly meant the rate constant with which the complex forms.

Experiment [1] concerns the target T1, hFLAG-EGF34+NRR-His6 (101V), the human Notch1 NRR immunogen (human Notch1 V1307-Q1733) (human, UniProt P46531 1307-1733).
T1 construct: Secreted from Sf-9 cells; also called hNotch1 NRR; human NRR1
Put plainly: competitive phage-binding ELISA; phage-displayed Fab pre-mixed with serial dilutions of soluble NRR1, then captured on NRR1-coated plate. The procedure: (§1) To identify the phage antibodies that bound to both human and murine Notch1 NRR, all unique clones were tested for binding to human and murine Notch1 by ELISA. The affinities of phage antibodies were ranked using single spot competition ELISA as described below in this Example. The phage antibody IC50 values were further determined using competitive phage-binding ELISA essentially described in Lee, C. V., et al. (2004) J Mol Biol 340, 1073-93. Briefly, NUNC 96 well Maxisorp immunoplates were coated overnight at 4° C. with 1 μg/ml human NRR1 or murine NRR1, and were blocked for 1 hour at room temperature with blocking buffer PBST (PBS and 1% BSA and 0.05% Tween 20). Phage was mixed with serial dilution of human or murine NRR1 at room temperature for 1 hour before the mixture was added to human and murine NRR1 coated plate. Bound phage were detected with anti-M13 HRP conjugates, developed with TMB substrate for approximately 5 minutes, quenched with 1M H₃PO₄, and read spectrophotometrically at 450 nm.
(§2) In comparison to the OD_{450 nm} reduction (%) of the well of parental phage (100%), clones that had the OD_{450 nm} reduction (%) lower than 50% were picked for sequence analysis. Unique clones were selected for phage preparation to determine binding affinity (phage IC50) by comparison with parental clones (Table 4).
For orientation: In an ELISA, binding on a coated surface is turned into a signal by an enzyme label.

Experiment [2] concerns the target T2, mFLAG-EGF34+NRR-His6, the murine Notch1 NRR immunogen (mouse Notch1 V1307-Q1723) (mouse, UniProt Q01705 1307-1723).
T2 construct: N-terminal FLAG tag and C-terminal His tag, expressed in 293-F cells; also called mNotch1 NRR; mouse Notch1 NRR
The description is as above. The procedure: as §1, §2

The target of experiment [3] is T1, hFLAG-EGF34+NRR-His6 (101V), the human …. Briefly: SPR (BIAcore-3000), IgG captured on rabbit anti-human IgG, NRR1-ECD protein injected 3.9-500 nM, 25 C, 1:1 Langmuir. On the procedure: (§3) To further characterize the binding affinity and binding kinetics of the anti-Notch1 NRR Mabs, surface plasmon resonance (SRP) measurement with a BIAcore™-3000 was used (BIAcore, Inc., Piscataway, N.J.). Briefly, carboxymethylated dextran biosensor chips (CM5, BIAcore Inc.) were activated with N-ethyl-N′-(3-dimethylaminopropyl)-carbodiimide hydrochloride (EDC) and N-hydroxysuccinimide (NHS) according to the supplier's instructions. Rabbit anti human antibody (Pierce) was diluted with 10 mM sodium acetate, pH 4.8, into 20 μg/ml before injection at a flow rate of 5 μl/minute to achieve approximately 3000 response units (RU) of coupled antibody. Next, 1M ethanolamine was injected to block unreacted groups. Anti-NRR1 mab (formatted as a full-length IgG) was captured by rabbit anti-human IgG coated on the chips to achieve approximately 200 response units (RU). For kinetics measurements, two-fold serial dilutions of human NRR1-ECD or murine NRR1-ECD proteins (3.9 nM to 500 nM) were injected in PBT buffer (PBS with 0.05% Tween 20) at 25° C. with a flow rate of 30 μl/min. Association rates (kₒₙ) and dissociation rates (koff) were calculated using a simple one-to-one Langmuir binding model (BIAcore Evaluation Software version 3.2). The equilibrium dissociation constant (KD) was calculated as the ratio koff/kₒₙ.
(§4) “NA” signifies that the measurement was not performed.
For orientation: In SPR one partner is held on a chip, and binding of the other changes the refractive index at the surface.

The target in experiment [4] is T2, mFLAG-EGF34+NRR-His6, the murine Notch1 …. Described as above. The procedure: as §3, §4
Another experiment deals with T3, murine Notch3 NRR (mouse, UniProt Q61982 1379-1643, limits assumed).
T3 construct: domain: NRR; It is split here into the two species; also called mouse NRR3
Put plainly: cross-reactivity test of the IgG (Table 3; method not detailed).

The next experiment concerns the target T4, murine Notch4 NRR (mouse, UniProt P31695 1166-1443, limits assumed).
T4 construct: domain: NRR; It is split here into the two species; also called mouse NRR4
T4 sequence (looked up): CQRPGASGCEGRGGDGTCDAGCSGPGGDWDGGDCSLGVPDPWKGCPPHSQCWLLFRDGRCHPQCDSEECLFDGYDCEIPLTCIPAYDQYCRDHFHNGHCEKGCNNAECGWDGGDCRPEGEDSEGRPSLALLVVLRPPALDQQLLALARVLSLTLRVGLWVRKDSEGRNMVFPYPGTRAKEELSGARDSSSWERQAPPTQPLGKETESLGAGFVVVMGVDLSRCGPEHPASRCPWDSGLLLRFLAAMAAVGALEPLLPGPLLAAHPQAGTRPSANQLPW
The description is as above.

The target of another experiment is T5, murine Notch2 NRR (mouse, UniProt O35516 1425-1679).
T5 construct: domain: NRR; It is split here into the two species; also called mouse NRR2
T5 sequence (looked up): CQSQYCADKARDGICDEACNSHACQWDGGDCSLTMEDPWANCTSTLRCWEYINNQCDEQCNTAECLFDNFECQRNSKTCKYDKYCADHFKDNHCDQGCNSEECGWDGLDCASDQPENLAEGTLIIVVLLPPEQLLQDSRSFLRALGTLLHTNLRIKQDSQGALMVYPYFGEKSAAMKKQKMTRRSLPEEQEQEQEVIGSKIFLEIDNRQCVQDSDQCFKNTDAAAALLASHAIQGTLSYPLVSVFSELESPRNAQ
The description is as above.

For the next experiment, the target named is T6, human Notch3 NRR (human, UniProt Q9UM47 1378-1643, limits assumed).
T6 construct: domain: NRR; It is split here into the two species; also called human NRR3
Described as above.

The next experiment concerns the target T7, human Notch4 NRR (human, UniProt Q99466 1170-1447, limits assumed).
T7 construct: domain: NRR; It is split here into the two species; also called human NRR4
T7 sequence (looked up): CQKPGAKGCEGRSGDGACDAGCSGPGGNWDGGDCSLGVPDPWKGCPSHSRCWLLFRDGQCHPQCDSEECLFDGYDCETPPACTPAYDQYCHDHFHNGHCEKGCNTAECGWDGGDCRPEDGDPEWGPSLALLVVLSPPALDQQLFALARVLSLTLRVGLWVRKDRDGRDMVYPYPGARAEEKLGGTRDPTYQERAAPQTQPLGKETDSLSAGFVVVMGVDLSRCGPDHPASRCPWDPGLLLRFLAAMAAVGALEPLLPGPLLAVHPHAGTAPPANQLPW
The experiment is described as above.

In a further experiment the target is T8, human Notch2 NRR (human, UniProt Q04721 1425-1677).
T8 construct: domain: NRR; It is split here into the two species; also called human NRR2
T8 sequence (looked up): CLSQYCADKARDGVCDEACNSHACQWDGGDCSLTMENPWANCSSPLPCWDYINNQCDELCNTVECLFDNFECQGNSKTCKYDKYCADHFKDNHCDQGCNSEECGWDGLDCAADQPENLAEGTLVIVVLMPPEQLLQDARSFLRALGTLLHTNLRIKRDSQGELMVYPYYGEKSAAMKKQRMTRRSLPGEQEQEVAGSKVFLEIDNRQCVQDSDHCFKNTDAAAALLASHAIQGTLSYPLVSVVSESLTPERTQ
Described as above.

In experiment [5] the target is human Notch1 expressed on NIH-3T3 cells (human, UniProt P46531 19-2555). Put plainly: cell-based or functional assay.

T2 sequence (Q01705 other isoform, or with tags, fused parts or gaps): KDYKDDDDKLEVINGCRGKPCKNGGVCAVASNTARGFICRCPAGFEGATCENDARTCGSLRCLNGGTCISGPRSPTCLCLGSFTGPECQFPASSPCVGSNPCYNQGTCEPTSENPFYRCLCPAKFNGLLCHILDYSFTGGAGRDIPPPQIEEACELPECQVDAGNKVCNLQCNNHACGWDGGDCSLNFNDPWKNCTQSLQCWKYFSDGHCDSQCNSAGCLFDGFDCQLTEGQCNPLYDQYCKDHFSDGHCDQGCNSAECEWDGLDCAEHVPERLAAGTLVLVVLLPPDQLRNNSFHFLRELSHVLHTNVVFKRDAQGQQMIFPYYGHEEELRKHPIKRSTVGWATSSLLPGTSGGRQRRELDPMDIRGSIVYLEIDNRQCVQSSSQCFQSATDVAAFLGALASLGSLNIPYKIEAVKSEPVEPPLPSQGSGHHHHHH
T3 sequence (Q61982 1379-1643 limits assumed): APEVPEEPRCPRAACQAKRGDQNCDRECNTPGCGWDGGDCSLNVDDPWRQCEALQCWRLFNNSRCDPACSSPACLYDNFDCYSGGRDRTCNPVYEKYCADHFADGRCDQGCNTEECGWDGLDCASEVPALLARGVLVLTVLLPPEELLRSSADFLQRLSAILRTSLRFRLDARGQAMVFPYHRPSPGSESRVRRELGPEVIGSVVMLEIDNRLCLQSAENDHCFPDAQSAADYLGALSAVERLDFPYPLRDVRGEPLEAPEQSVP
T6 sequence (Q9UM47 1378-1643 limits assumed): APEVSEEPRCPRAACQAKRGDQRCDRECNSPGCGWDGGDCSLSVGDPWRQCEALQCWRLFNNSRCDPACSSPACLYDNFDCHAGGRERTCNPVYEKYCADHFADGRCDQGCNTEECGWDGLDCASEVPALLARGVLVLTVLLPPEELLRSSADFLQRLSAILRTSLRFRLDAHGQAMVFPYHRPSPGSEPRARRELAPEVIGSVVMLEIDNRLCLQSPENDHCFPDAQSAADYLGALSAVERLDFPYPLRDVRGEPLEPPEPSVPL

B1: Antibody A-1, phage-displayed Fab clone (Fab, V domains shown)
VH: EVQLVESGGGLVQPGGSLRLSCAASGFTFSSYWIHWVRQAPGKGLEWVARINPPNGSAHYADSVKGRFTISADTSKNTAYLQMNSLRAEDTAVYYCARGSGFRWVMDYWGQGTLVTVSS
VL: DIQMTQSPSSLSASVGDRVTITCRASQDVSTAVAWYQQKPGKAPKLLIYSASFLYSGVPSRFSGSGSGTDFTLTISSLQPEDFATYYCQQSYTTPATFGQGTKVEIKR
In the case of B1, the half-maximal inhibitory concentration (IC50) in [1] is 0.8 nM; in experiment [2] it was 0.6 nM.

B2: Antibody A-1 (antibody, IgG1, V domains shown)
VH: B1 VH
VL: B1 VL
notes: also called Antibody A-1-hIgG1
For the molecule B2, in [3], binding was characterised by a dissociation constant (Kd) of 3.43 nM, the dissociation rate constant (koff) was determined as 0.00023 s⁻¹ and the kon was determined as 67000 M⁻¹ s⁻¹. Moreover, in [4], binding was put at a Kd of 3.88 nM, the dissociation rate constant (koff) amounted to 0.00033 s⁻¹ and the kon was 85000 M⁻¹ s⁻¹.

B3: Antibody A-3, phage-displayed Fab clone (Fab, V domains shown)
VH: B1 VH with P54A, A58T, H59R
VL: B1 VL with Y92F, T93S
B3: the IC50 in experiment [1] was determined as 0.5 nM; in experiment [2], 2.5 nM.

B4: Antibody A-3 (antibody, V domains shown)
VH: B1 VH with P54A, A58T, H59R
VL: B1 VL with Y92F, T93S
In [3], B4 registered a Kd of 5.88 nM, a koff of 0.0004 s⁻¹ and an on-rate (kon) of 68000 M⁻¹ s⁻¹. In [4], the Kd is 13 nM, the off-rate (koff) was determined as 0.0012 s⁻¹ and the kon was determined as 92000 M⁻¹ s⁻¹.

B5: Antibody A (antibody, IgG1, V domains shown)
VH: B1 VH with P54S, A58T, H59N
VL: B1 VL with A96P
notes: also called anti-Notch1 NRR Antibody A; Antibody A-hIgG1
Regarding B5, the binding result in the experiment with murine Notch3 NRR, with murine Notch4 NRR, with murine Notch2 NRR, with human Notch3 NRR, with human Notch4 NRR and in the experiment with human Notch2 NRR was “no binding” throughout. For the same molecule, the “Co-culture blocking, IC50” value in experiment [5] is roughly 0.1 µg/mL. The Kd in [3] is 134 nM; in [4], 231 nM. Moreover, the figures for the koff in experiment [3] and in [4] were 0.011 s⁻¹ and 0.021 s⁻¹, respectively. Also, the kon was 82000 M⁻¹ s⁻¹ in experiment [3] and 91000 M⁻¹ s⁻¹ in experiment [4].

B6: Antibody A-2 (antibody, IgG1, V domains shown)
VH: B1 VH with G56R, A58N, H59Q
VL: B1 VL with S91F, A96S
notes: also called Antibody A-2-hIgG1
With B6, in experiment [3], the Kd was determined as 2.53 nM, the koff amounted to 0.00022 s⁻¹ and the kon is 87000 M⁻¹ s⁻¹. In experiment [4], binding was characterised by a dissociation constant (Kd) of 3.09 nM, the dissociation rate constant (koff) came out at 0.00034 s⁻¹ and the association rate constant (kon) was determined as 110000 M⁻¹ s⁻¹.

B7: Antibody A-2, phage-displayed Fab clone (Fab, V domains shown)
VH: B1 VH with G56R, A58N, H59Q
VL: B1 VL with S91F, A96S
For the molecule B7, the IC50 in experiment [1] and in experiment [2] was 0.5 nM each time.

Source of the values: patent US20180112005A1 (published 2018).
